The target in data set [1] is T1, TprA (Pseudomonas aeruginosa PA14, UniProt A0A0H2ZFZ8 1-84). In words: EMSA. Particulars: protein: recombinant; tags: His-tag removed by TEV; chain copies: 2; label: 5'-Cy5 on strand 1; blunt. A general note: A gel shift assay detects complexes by their altered migration in electrophoresis.
Data set [2] concerns the target T1, TprA. In words: EMSA; 1 uM TprA. Particulars: protein: recombinant; tags: His-tag removed by TEV; chain copies: 2; label: 5'-Cy5 on strand 1; blunt.

B1: R3.3 (dsDNA)
DNA 1: TACTGTCTGACCTGAGTTCAACAAAGCATTCTA
DNA 2: TAGAATGCTTTGTTGAACTCAGGTCAGACAGTA
On to B1, for which the binding result in data set [1] is recorded as “no binding”.

B2: R2 (dsDNA)
DNA 1: AGTACTGAATCCAGCCACTACCAAGGGGTTAACTGATGCCAGGCTTGGAAATACGGAGCCTTTCCAAGCGACTAAAACAAAGAAGAAAGCTCCCCAGAAA
DNA 2: TTTCTGGGGAGCTTTCTTCTTTGTTTTAGTCGCTTGGAAAGGCTCCGTATTTCCAAGCCTGGCATCAGTTAACCCCTTGGTAGTGGCTGGATTCAGTACT
Consider B2, for which the binding result in data set [2] is on record as “no binding”.

B3: R3 (dsDNA)
DNA 1: AATTTAGCCCAATAGTATTTAAAGCTCAATTAGCACCCCGTACTGTCTGACCTGAGTTCAACAAAGCATTCTAAAACGATTAGAACTTCTATTTTATCCA
DNA 2: TGGATAAAATAGAAGTTCTAATCGTTTTAGAATGCTTTGTTGAACTCAGGTCAGACAGTACGGGGTGCTAATTGAGCTTTAAATACTATTGGGCTAAATT
As for B3, the binding result in data set [2] is “binds”.

B4: R4 (dsDNA)
DNA 1: TTTCTAACAACGATTCCCACCTGGCTCGCTTTAGGCGTAACATGAAAAACCTTCATCGCTCCTAATCCGTTTCCCTTACGCCTGCCTCGCTCACCCTCTG
DNA 2: CAGAGGGTGAGCGAGGCAGGCGTAAGGGAAACGGATTAGGAGCGATGAAGGTTTTTCATGTTACGCCTAAAGCGAGCCAGGTGGGAATCGTTGTTAGAAA
Turning to B4, the binding result in data set [2] was “no binding”.

B5: R3.1 (dsDNA)
DNA 1: AATTTAGCCCAATAGTATTTAAAGCTCAATTAGCAC
DNA 2: GTGCTAATTGAGCTTTAAATACTATTGGGCTAAATT
With B5, the binding result in data set [1] was “no binding”.

B6: R3.2 (tprA-BS) (dsDNA)
DNA 1: AGTATTTAAAGCTCAATTAGCACCCCGTACTGT
DNA 2: ACAGTACGGGGTGCTAATTGAGCTTTAAATACT
B6: the binding result in data set [1] is “binds”.

B7: R3.4 (dsDNA)
DNA 1: ATTCTAAAACGATTAGAACTTCTATTTTATCCA
DNA 2: TGGATAAAATAGAAGTTCTAATCGTTTTAGAAT
With B7, the binding result in data set [1] is recorded as “no binding”.

B8: R5 (dsDNA)
DNA 1: CCTAGTCATCGAGAAATCCCCTCCCCTGTTGCCGAGTATTTCCTGCTGATGCGTGGCGGATGGCCTGCCACTGTGTGCCCCATCATCAAAGGGGGCCTCA
DNA 2: TGAGGCCCCCTTTGATGATGGGGCACACAGTGGCAGGCCATCCGCCACGCATCAGCAGGAAATACTCGGCAACAGGGGAGGGGATTTCTCGATGACTAGG
For B8, the binding result in data set [2] is reported as “no binding”.

B9: R1 (dsDNA)
DNA 1: TTGCAGGGGTTTCGGAGAAAAAACCTGTGACCCAGAACTCTTTTTCCGTATATTTTAAAGCGAAGTCTTCAACAAGCCTTACCGAGAAAGGAAACAGGAT
DNA 2: ATCCTGTTTCCTTTCTCGGTAAGGCTTGTTGAAGACTTCGCTTTAAAATATACGGAAAAAGAGTTCTGGGTCACAGGTTTTTTCTCCGAAACCCCTGCAA
Take B9: in data set [2], the binding result is reported as “no binding”.

For the origin of these results see PMC8565334, “The horizontal transfer of Pseudomonas aeruginosa PA14 ICE PAPI-1 is controlled by a transcriptional triad between TprA, NdpA2 and MvaT”.
